In data set [1] the target is DNMT3B MTase domain R670Q (human, UniProt Q9UBC3 569-853, R670Q). The data set is described as follows: ITC; 5 C; N fixed at 0.5; ITC: 20 mM Tris-HCl pH 7.2, 200 mM NaCl, 5% glycerol, 2 mM b-mercaptoethanol, 5 C; EMSA: 50 mM Tris-HCl pH 8.0, 25% glycerol, 8% glucose, 2 mM DTT, 0.1 mg/mL BSA, 30 min, gel in 0.5x TBE at 4 C. Conditions: protein: recombinant; tags: His6-MBP removed by TEV; (only upper strand given). For orientation: Isothermal titration calorimetry measures the heat released or taken up as one component is titrated into another.

Data set [2] has as its target DNMT3B MTase domain L664P (human, UniProt Q9UBC3 569-853, L664P). The data set is described as follows: ITC; 5 C; N.M. (not measurable); text says much reduced; ITC: 20 mM Tris-HCl pH 7.2, 200 mM NaCl, 5% glycerol, 2 mM b-mercaptoethanol, 5 C; EMSA: 50 mM Tris-HCl pH 8.0, 25% glycerol, 8% glucose, 2 mM DTT, 0.1 mg/mL BSA, 30 min, gel in 0.5x TBE at 4 C. Conditions: protein: recombinant; tags: His6-MBP removed by TEV; (only upper strand given).

This is an account of results in publication PMC9307851.

B1: 24-mer DNA duplex (GAC)8 (dsDNA)
DNA 1: GACGACGACGACGACGACGACGAC
DNA 2: GTCGTCGTCGTCGTCGTCGTCGTC
In the case of B1, the Kd (as a rule, the equilibrium constant for the complex coming apart) in data set [1] was 24.4 ± 4.4 µM. In addition, the binding result in data set [2] is “no binding”.
